Data taken from patent publication CN111848800A (SANYOU BIOPHARMACEUTICALS CO LTD, dated 2020).

Key:
[1] = target: T1, 恒河猴PD-L1 (全长蛋白, on CHO-s cells) (rhesus monkey, UniProt F6VEW6 19-290); assay: FACS on monkey PD-L1-CHO cells
T1 construct: whole, on cells; also called 猴PD-L1-CHO

[2] = target: T2, 鼠PD-L1 (全长蛋白, on CHO-s cells) (mouse, UniProt Q9EP73 19-290); assay: FACS on mouse PD-L1-CHO cells, PE anti-human IgG Fc
T2 construct: whole, on cells; also called 小鼠PD-L1-CHO; 鼠PD-L1-CHO

人PD-L1 (全长蛋白, on cells) [3] = target: T3, 人PD-L1 (全长蛋白, on cells) (human, UniProt Q9NZQ7 19-290); assay: FACS on human PD-L1-CHO cells, PE anti-human IgG Fc
T3 construct: whole, on cells; also called 人PD-L1-CHO; PD-L1-CHO

人PD-L1 (全长蛋白, on cells) [4] = target: T3, 人PD-L1 (全长蛋白, on cells); assay: FACS competition on human PD-L1-CHO cells against biotin CD80 (1 μg/mL)
人PD-L1 (全长蛋白, on cells) [5] = target: T3, 人PD-L1 (全长蛋白, on cells); assay: FACS competition on human PD-L1-CHO cells against biotin PD-1-Fc (1 μg/mL)
[6] = target: T4, B7-H2 recombinant protein (义翘神州 11559-H08H) (UniProt O75144 19-258); assay: ELISA, protein coated at 2 μg/mL, anti-human IgG Fc-HRP; N/A means 未检出结合活性
T4 sequence (looked up): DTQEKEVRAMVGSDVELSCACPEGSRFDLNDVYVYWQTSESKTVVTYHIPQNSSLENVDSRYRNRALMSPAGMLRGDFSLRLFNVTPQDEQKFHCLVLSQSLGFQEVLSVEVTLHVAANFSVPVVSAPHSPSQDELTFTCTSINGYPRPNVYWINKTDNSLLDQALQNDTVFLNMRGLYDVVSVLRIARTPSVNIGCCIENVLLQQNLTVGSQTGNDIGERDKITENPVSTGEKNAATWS

[7] = target: T5, B7-H3 recombinant protein (义翘神州 11188-H08H) (UniProt Q5ZPR3 29-461); assay: as above
T5 sequence (looked up): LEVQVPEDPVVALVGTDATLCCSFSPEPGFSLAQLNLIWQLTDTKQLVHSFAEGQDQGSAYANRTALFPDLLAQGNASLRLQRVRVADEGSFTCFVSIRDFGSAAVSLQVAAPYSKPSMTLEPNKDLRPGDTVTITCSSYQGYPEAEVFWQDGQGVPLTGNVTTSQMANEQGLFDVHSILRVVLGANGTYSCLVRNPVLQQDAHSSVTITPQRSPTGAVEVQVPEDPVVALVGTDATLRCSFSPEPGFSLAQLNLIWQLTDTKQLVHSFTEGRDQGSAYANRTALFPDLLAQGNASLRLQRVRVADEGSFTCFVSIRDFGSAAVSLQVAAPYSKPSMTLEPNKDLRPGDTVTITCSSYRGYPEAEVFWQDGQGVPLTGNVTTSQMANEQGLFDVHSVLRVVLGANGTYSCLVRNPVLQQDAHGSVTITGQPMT

[8] = target: T6, B7-H4 recombinant protein (义翘神州 10738-H08H) (UniProt Q7Z7D3 25-258); assay: as above
T6 sequence (looked up): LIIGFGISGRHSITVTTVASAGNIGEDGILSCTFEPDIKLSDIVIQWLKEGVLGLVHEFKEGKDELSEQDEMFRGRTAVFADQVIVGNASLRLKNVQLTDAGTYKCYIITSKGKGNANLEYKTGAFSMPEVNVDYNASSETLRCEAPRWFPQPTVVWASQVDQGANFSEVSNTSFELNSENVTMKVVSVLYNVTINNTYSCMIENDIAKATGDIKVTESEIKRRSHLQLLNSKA

[9] = target: T7, B7-DC recombinant protein (义翘神州 10292-H08H-B) (UniProt Q9BQ51 20-219); assay: as above
T7 sequence (looked up): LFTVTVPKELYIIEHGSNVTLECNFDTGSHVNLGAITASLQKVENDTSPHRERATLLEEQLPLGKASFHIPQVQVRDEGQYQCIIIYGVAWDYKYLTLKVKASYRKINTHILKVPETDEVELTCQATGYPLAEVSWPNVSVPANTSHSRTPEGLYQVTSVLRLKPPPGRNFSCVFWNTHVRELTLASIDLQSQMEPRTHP

T3 sequence (Q9NZQ7 19-290): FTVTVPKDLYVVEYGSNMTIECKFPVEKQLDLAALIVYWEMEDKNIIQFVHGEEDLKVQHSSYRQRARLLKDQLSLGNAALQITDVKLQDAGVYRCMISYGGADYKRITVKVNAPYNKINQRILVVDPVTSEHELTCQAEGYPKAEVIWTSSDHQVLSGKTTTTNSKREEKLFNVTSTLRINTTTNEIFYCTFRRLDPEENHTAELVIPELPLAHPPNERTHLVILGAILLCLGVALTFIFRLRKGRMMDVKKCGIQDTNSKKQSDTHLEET
T2 sequence (Q9EP73 19-290): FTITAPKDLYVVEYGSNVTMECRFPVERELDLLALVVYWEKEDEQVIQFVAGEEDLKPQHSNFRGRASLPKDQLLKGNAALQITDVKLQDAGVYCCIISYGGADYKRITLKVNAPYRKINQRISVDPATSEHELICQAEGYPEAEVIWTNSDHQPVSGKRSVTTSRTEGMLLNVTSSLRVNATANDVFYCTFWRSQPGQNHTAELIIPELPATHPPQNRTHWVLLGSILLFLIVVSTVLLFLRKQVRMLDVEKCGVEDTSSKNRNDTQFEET

EC50 [1]: 0.21 µg/mL
binding result [2]: no binding (tested: 20μg/mL)
EC50 (人PD-L1 (全长蛋白, on cells) [3]): 0.39 µg/mL
IC50 (人PD-L1 (全长蛋白, on cells) [4]): 0.631 µg/mL
IC50 (人PD-L1 (全长蛋白, on cells) [5]): 0.39 µg/mL
binding result [6]: no binding
binding result [7]: no binding
binding result [8]: no binding
binding result [9]: no binding
B1: KN035 (Fc fusion)
chain: QVQLVESGGGLVQPGGSLRLSCAASGFTFSRRCKAWFRQAPGKERERVAKILTTSGSTYLADSVKGRFTISRDNSKNTVYLQMNSLRAEDTAVYYCAADSFEDPTCTLVTSSGAFQYWGQGTLVTVSS
notes: Control antibody made from the synthesised whole gene in ExpiCHO; the molecule is detected with anti-human IgG Fc; also called KN035(对照); 对照抗体KN035
